Among the data in the Immune Epitope Database (IEDB) are IC50 values, retold here.

Targets include HLA-A*02:01; HLA-A*11:01; HLA-A*03:01; HLA-A*01:01; HLA-B*08:01; HLA-A*31:01; HLA-B*27:05; HLA-A*33:01; HLA-A*68:01; HLA-A*30:01.
Holding throughout (assay): IEDB peptide-MHC binding, purified MHC/competitive/radioactivity; ≥ and ≤ were set here for values at or beyond the usual limits of such assays
Holding throughout (conditions): source organism: Homo sapiens

The term IC50 denotes the point on the concentration scale where inhibition reaches its midpoint.

Turning to AIKTSPKAN, the IC50 with HLA-A*02:01, with HLA-A*11:01 and with HLA-A*03:01 was at least 20 µM in each case.

For the sequence IKTSPKANKE, the IC50 in the assay with HLA-A*02:01, with HLA-A*11:01 and with HLA-A*03:01 was at least 20 µM in each case.

Take KIPVAIKTSPK: the values for the IC50 with HLA-A*02:01, with HLA-A*11:01 and with HLA-A*03:01 were at least 20 µM, 0.862 µM and 0.253 µM, respectively.

For GRAKLLGAEEK, the IC50 with HLA-A*02:01 was at least 50 µM; with HLA-A*01:01, at least 50 µM; with HLA-A*11:01 it was at least 50 µM; with HLA-B*08:01 it was at least 50 µM; with HLA-A*31:01 it was 4.86 µM; in the assay with HLA-B*27:05 it was 0.0438 µM. The IC50 in the assay with HLA-A*03:01 is 42.9 µM; in the assay with HLA-A*33:01, at least 50 µM; with HLA-A*68:01, at least 50 µM; with HLA-A*30:01, at least 50 µM.

As for VKIPVAIKT, the IC50 with HLA-A*02:01, in the assay with HLA-A*11:01 and with HLA-A*03:01 was at least 20 µM each time.

With RAKLLGAEEK, the IC50 with HLA-A*02:01 was at least 50 µM; with HLA-A*01:01 it was at least 50 µM; with HLA-A*11:01 it was 21.7 µM; with HLA-B*08:01, at least 50 µM; with HLA-A*31:01 it was 0.817 µM; with HLA-B*27:05, 10.5 µM. Moreover, the IC50 with HLA-A*03:01 was 6.56 µM; with HLA-A*33:01, 35.6 µM; in the assay with HLA-A*68:01 it was 28.9 µM; in the assay with HLA-A*30:01, 1.77 µM.

Take PVAIKTSPKA: the figures for the IC50 with HLA-A*02:01, with HLA-A*11:01 and in the assay with HLA-A*03:01 were at least 20 µM, 11.6 µM and 9.32 µM, respectively.

Consider VAIKTSPKA, for which the IC50 with HLA-A*02:01, with HLA-A*11:01 and with HLA-A*03:01 was at least 20 µM throughout.

For KTSPKANKEI, the IC50 with HLA-A*02:01, in the assay with HLA-A*11:01 and in the assay with HLA-A*03:01 was at least 20 µM throughout.

Take LAKLLGAEEK: the IC50 with HLA-A*02:01 was at least 50 µM; with HLA-A*01:01, at least 50 µM; in the assay with HLA-A*11:01, at least 50 µM; in the assay with HLA-B*08:01 it was at least 50 µM; in the assay with HLA-A*31:01, 29.9 µM; with HLA-B*27:05, at least 50 µM. In addition, the IC50 with HLA-A*03:01 was determined as 43.5 µM; with HLA-A*33:01, 20.3 µM; with HLA-A*68:01 it was 2.01 µM; in the assay with HLA-A*30:01, 37.3 µM.

Regarding PVAIKTSPK, the IC50 with HLA-A*02:01 was at least 20 µM; with HLA-A*11:01, 0.782 µM; with HLA-A*03:01 it was 0.529 µM.

Turning to AIKTSPKA, the IC50 in the assay with HLA-A*02:01, in the assay with HLA-A*11:01 and with HLA-A*03:01 was at least 20 µM in each case.

Regarding KTSPKANK, the IC50 with HLA-A*02:01 was at least 20 µM; with HLA-A*11:01 it was 1.69 µM; with HLA-A*03:01, 0.679 µM.

For the sequence AIKTSPKANK, the IC50 with HLA-A*02:01 was at least 20 µM; with HLA-A*11:01 it was 4.65 µM; with HLA-A*03:01 it was 0.584 µM.

For PVAIKTSP, the IC50 in the assay with HLA-A*02:01, with HLA-A*11:01 and with HLA-A*03:01 was at least 20 µM in each case.

Consider KIPVAIKTSP, for which the IC50 with HLA-A*02:01, in the assay with HLA-A*11:01 and in the assay with HLA-A*03:01 was at least 20 µM in each case.

As for IPVAIKTS, the IC50 with HLA-A*02:01, with HLA-A*11:01 and with HLA-A*03:01 was at least 20 µM throughout.

As for IPVAIKTSPK, the IC50 with HLA-A*02:01 is at least 20 µM; with HLA-A*11:01, 3.35 µM; with HLA-A*03:01 it was 1.66 µM.

With VAIKTSPKANK, the IC50 was at least 20 µM with HLA-A*02:01, 1.63 µM with HLA-A*11:01 and 1.85 µM with HLA-A*03:01.

Take VAIKTSPKAN: the IC50 in the assay with HLA-A*02:01, in the assay with HLA-A*11:01 and in the assay with HLA-A*03:01 was at least 20 µM each time.

For KIPVAIKTS, the IC50 in the assay with HLA-A*02:01, with HLA-A*11:01 and with HLA-A*03:01 was at least 20 µM throughout.

Regarding PVAIKTSPKAN, the results for the IC50 in the assay with HLA-A*02:01, with HLA-A*11:01 and with HLA-A*03:01 were at least 20 µM, 6.43 µM and 4.5 µM, respectively.

In the case of IKTSPKAN, the IC50 with HLA-A*02:01, in the assay with HLA-A*11:01 and with HLA-A*03:01 was at least 20 µM in each case.

Turning to KIPVAIKT, the IC50 with HLA-A*02:01, in the assay with HLA-A*11:01 and with HLA-A*03:01 was at least 20 µM each time.

Take KTSPKANKEIL: the IC50 with HLA-A*02:01, with HLA-A*11:01 and with HLA-A*03:01 was at least 20 µM each time.

IKTSPKANKEI: the IC50 in the assay with HLA-A*02:01, with HLA-A*11:01 and with HLA-A*03:01 was at least 20 µM each time.

KITDFGLAK: in the assay with HLA-A*11:01, the IC50 worked out at 0.133 µM.

In the case of VKIPVAIKTSP, the IC50 with HLA-A*02:01, with HLA-A*11:01 and with HLA-A*03:01 was at least 20 µM each time.

KVKIPVAIKT: the figures for the IC50 with HLA-A*02:01, with HLA-A*11:01 and in the assay with HLA-A*03:01 were at least 20 µM, 10.2 µM and 0.397 µM, respectively.

In the case of IPVAIKTSPKA, the concentration for half-maximal inhibition (IC50) with HLA-A*02:01, with HLA-A*11:01 and in the assay with HLA-A*03:01 was at least 20 µM throughout.

Regarding HVKITDFGL, the IC50 was at least 50 µM with HLA-A*02:01; at least 50 µM with HLA-A*01:01; at least 50 µM with HLA-A*11:01; 0.475 µM in the assay with HLA-B*08:01; 4.67 µM with HLA-A*31:01; 41.3 µM in the assay with HLA-B*27:05. For the same sequence, the IC50 with HLA-A*03:01 is at least 50 µM; with HLA-A*33:01, 6.53 µM; in the assay with HLA-A*68:01 it was at least 50 µM; with HLA-A*30:01, 7.63 µM.

AIKTSPKANKE: the results for the IC50 with HLA-A*02:01, in the assay with HLA-A*11:01 and in the assay with HLA-A*03:01 were at least 20 µM, 9.92 µM and 1.59 µM, respectively.

In the case of GLAKLLGAEEK, the IC50 with HLA-A*02:01 is at least 50 µM; in the assay with HLA-A*01:01, at least 50 µM; in the assay with HLA-A*11:01, at least 50 µM; with HLA-B*08:01, 3.37 µM; with HLA-A*31:01, 1.06 µM; with HLA-B*27:05, 14.7 µM. The IC50 is 0.664 µM with HLA-A*03:01, at least 50 µM with HLA-A*33:01, at least 50 µM with HLA-A*68:01 and at least 50 µM with HLA-A*30:01.

For the sequence VKIPVAIKTS, the IC50 in the assay with HLA-A*02:01, with HLA-A*11:01 and with HLA-A*03:01 was at least 20 µM throughout.

In the case of KVKIPVAIKTS, the IC50 in the assay with HLA-A*02:01 was at least 20 µM; with HLA-A*11:01, 11.4 µM; with HLA-A*03:01 it was 0.508 µM.

Consider IKTSPKANK, for which the IC50 in the assay with HLA-A*02:01 was at least 20 µM; in the assay with HLA-A*11:01 it was at least 20 µM; with HLA-A*03:01, 16.5 µM.

Regarding FGLAKLLGA, the IC50 with HLA-A*02:01 is 0.107 µM; with HLA-A*01:01 it was at least 50 µM; in the assay with HLA-A*11:01, at least 50 µM; in the assay with HLA-B*08:01 it was 0.0266 µM; in the assay with HLA-A*31:01 it was 8.45 µM; with HLA-B*27:05, 3.7 µM. The IC50 with HLA-A*03:01 was at least 50 µM; with HLA-A*33:01 it was at least 50 µM; in the assay with HLA-A*68:01 it was at least 50 µM; with HLA-A*30:01, 8.77 µM.

Consider VAIKTSPK, for which the IC50 with HLA-A*02:01 was at least 20 µM; with HLA-A*11:01, 1.98 µM; with HLA-A*03:01, 3.68 µM.

Regarding EKVKIPVAIKT, the IC50 in the assay with HLA-A*02:01 was at least 20 µM; with HLA-A*11:01 it was 15.1 µM; in the assay with HLA-A*03:01, 11.2 µM.
